The subject of one data set is Ddl6. In words: PK/LDH-coupled spectrophotometric assay, […] nm. To be noted: 10 mM MgCl2, 10 mM KCl, 100 mM HEPES pH 7.5, 37 °C. In kind it is biochemical.
In data set [1] the test system is Nc1ncnc2c1ncn2[C@@H]1O[C@H](COP(=O)(O)OP(=O)(O)OP(=O)(O)O)[C@@H](O)[C@H]1O. In words: purified protein. To be noted: 100 mM D-alanine, ATP 5-320 µM, 10 mM MgCl2, 10 mM KCl, 100 mM HEPES pH 7.5, 37 °C.
In a further data set the test system is C[C@@H](N)C(=O)O. In words: purified protein. Particulars: second D-alanine binding, 500 µM ATP, 10 mM MgCl2, 10 mM KCl, 100 mM HEPES pH 7.5, 37 °C.

Read-outs that look alike come from different tables or passages of the source.

A word on the Km: it is the concentration of substrate that gives half-maximal velocity. With `Nc1ncnc2c1ncn2[C@@H]1O[C@H](COP(=O)(O)OP(=O)(O)OP(=O)(O)O)[C@@H](O)[C@H]1O` [ATP], the Km with Ddl6 (read-out: Km, ATP, 100 mM D-alanine, ATP 5-320 µM) stood at 55 µM.
Consider `C[C@@H](N)C(=O)O` [D-alanine], for which the Km in the data set with Ddl6 (second D-alanine binding, 500 µM ATP, read-out: Km, D-ala2) was 390 µM.
What is called kcat is the maximal rate divided by the concentration of active sites. What is called kcat/Km is the second-order rate constant that governs catalysis at low substrate concentration. Take DdlAEc (Escherichia coli K-12): the Km in data set [1] is listed as 48.99 µM. In addition, in the data set on C[C@@H](N)C(=O)O, the Km was found to be 520 µM, the kcat came out at 6.43 s⁻¹ and the kcat/Km was 12500 M⁻¹ s⁻¹.
In the same order, the values of DdlTd (Treponema denticola ATCC 35405) are 19.08 µM, 450 µM, 3.74 s⁻¹ and 8290 M⁻¹ s⁻¹.
